From IntAct's records for PubMed 20462492 come the findings set out here.

The labels stand for the following.
B1: Pre-mRNA-processing factor 19 (Saccharomyces cerevisiae), P32523 (parent)
chain: MLCAISGKVPRRPVLSPKSRTIFEKSLLEQYVKDTGNDPITNEPLSIEEIVEIVPSAQQASLTESTNSATLKANYSIPNLLTSLQNEWDAIMLENFKLRSTLDSLTKKLSTVMYERDAAKLVAAQLLMEKNEDSKDLPKSSQQAVAITREEFLQGLLQSSRDFVARGKLKAPKWPILKNLELLQAQNYSRNIKTFPYKELNKSMYYDKWVCMCRCEDGALHFTQLKDSKTITTITTPNPRTGGEHPAIISRGPCNRLLLLYPGNQITILDSKTNKVLREIEVDSANEIIYMYGHNEVNTEYFIWADNRGTIGFQSYEDDSQYIVHSAKSDVEYSSGVLHKDSLLLALYSPDGILDVYNLSSPDQASSRFPVDEEAKIKEVKFADNGYWMVVECDQTVVCFDLRKDVGTLAYPTYTIPEFKTGTVTYDIDDSGKNMIAYSNESNSLTIYKFDKKTKNWTKDEESALCLQSDTADFTDMDVVCGDGGIAAILKTNDSFNIVALTP
partner: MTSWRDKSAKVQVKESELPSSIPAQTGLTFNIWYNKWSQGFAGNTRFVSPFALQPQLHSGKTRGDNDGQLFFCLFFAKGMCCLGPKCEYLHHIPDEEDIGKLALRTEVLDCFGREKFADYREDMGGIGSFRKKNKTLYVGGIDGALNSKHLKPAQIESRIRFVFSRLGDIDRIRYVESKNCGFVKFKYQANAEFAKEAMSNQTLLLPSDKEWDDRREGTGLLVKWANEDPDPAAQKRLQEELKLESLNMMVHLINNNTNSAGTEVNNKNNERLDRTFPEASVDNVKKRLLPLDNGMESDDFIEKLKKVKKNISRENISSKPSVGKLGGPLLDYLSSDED

The variants in this assay derive from B1. The settings on record: with cwc2_yeast CWC2, Q12046.
D341A: the “effect of a mutation on the interaction” value is “decreasing interaction”. Take R403A: the “effect of a mutation on the interaction” value is recorded as “disrupting interaction”. Consider R403A;K404A, for which the “effect of a mutation on the interaction” value is recorded as “disrupting interaction”. The entry for Y387A is “decreasing interaction”; for K404A it is “decreasing interaction”.
